Experiments:
[1] = biological target: Mortalin/GRP-75/mt-hsp70 (human (endogenous in MCF-7, MDA-MB-231 and K562)) (UniProt P38646)
[2] = biological target: Mortalin/GRP-75/mt-hsp70 (human (endogenous in MCF-7, MDA-MB-231 and K562)) (UniProt P38646); remark: listed apart in the source

UniProt P38646, sequence (P38646 47-679): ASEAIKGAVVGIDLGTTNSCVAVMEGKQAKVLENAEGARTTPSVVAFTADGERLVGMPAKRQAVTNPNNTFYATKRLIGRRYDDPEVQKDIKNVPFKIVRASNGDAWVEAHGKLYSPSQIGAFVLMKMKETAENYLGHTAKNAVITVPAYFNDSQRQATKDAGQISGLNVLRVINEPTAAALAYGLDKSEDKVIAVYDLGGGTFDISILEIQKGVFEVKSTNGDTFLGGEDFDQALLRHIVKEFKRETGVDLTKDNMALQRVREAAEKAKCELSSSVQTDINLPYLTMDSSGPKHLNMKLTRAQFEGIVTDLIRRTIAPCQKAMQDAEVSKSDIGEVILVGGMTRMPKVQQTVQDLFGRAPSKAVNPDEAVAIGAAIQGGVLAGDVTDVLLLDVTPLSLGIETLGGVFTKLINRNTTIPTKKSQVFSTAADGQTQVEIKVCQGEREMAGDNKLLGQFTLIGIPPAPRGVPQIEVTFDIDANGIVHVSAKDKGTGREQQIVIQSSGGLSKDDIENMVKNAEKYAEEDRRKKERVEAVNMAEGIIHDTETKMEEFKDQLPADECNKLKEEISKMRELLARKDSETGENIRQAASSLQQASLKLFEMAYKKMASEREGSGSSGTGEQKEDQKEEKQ

SMRwt-CPP peptide
complement-mediated cytotoxicity (trypan blue), percent cell death of K562 cells treated with 1120 nM peptide, anti-CXCR4 antibody, minus or plus normal human serum [1]: 23%
complement-mediated cytotoxicity (trypan blue), percent cell death of MCF-7 cells treated with 300 nM peptide, anti-CXCR4 antibody, minus or plus normal human serum [1]: 29%
complement-mediated cytotoxicity (trypan blue), percent cell death of MDA-MB-231 cells treated with 540 nM peptide, anti-CXCR4 antibody, minus or plus normal human serum [1]: 9%
complement C9 level in extracellular vesicles of K562 cells after peptide and NHS, Western blot, compared to the NHS-treated controls [2]: 24.3%
complement C9 level in extracellular vesicles of MCF-7 cells after peptide and NHS, Western blot, compared to the NHS-treated controls [2]: 37.5%
complement C9 level in extracellular vesicles of MDA-MB-231 cells after peptide and NHS, Western blot, compared to the NHS-treated controls [2]: 56.3%
mortalin level in extracellular vesicles of K562 cells after peptide and NHS, Western blot, compared to the NHS-treated controls [2]: 34.4%
mortalin level in extracellular vesicles of MCF-7 cells after peptide and NHS, Western blot, compared to the NHS-treated controls [2]: 48.4%
mortalin level in extracellular vesicles of MDA-MB-231 cells after peptide and NHS, Western blot, compared to the NHS-treated controls [2]: 27.5%

Reference: paper PMC6739210
